One molecule from patent US20230416363A1 can be followed below.

The target in the experiment is mouse PD-1 expressed on cells (mouse) (UniProt Q02242). Put plainly: cell-based or functional assay.
Chain of mouse PD-1 expressed on cells (mouse) (Q02242 25-288): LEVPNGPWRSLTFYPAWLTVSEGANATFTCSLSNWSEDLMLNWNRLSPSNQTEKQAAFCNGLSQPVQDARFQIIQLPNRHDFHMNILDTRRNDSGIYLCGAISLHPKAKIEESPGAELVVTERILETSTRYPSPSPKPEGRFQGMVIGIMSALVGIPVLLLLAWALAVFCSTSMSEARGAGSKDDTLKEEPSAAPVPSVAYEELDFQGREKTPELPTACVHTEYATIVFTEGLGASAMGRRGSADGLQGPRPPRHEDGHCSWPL

B1: RMP1-14 (antibody, from another filing, V domains shown)
VH: EVQLQESGPGLVKPSQSLSLTCSVTGYSITSSYRWNWIRKFPGNRLEWMGYINSAGISNYNPSLKRRISITRDTSKNQFFLQVNSVTTEDAATYYCARSDNMGTTPFTYWGQGTLVTVSS
VL: DIVMTQGTLPNPVPSGESVSITCRSSKSLLYSDGKTYLNWYLQRPGQSPQLLIYWMSTRASGVSDRFSGSGSGTDFTLKISGVEAEDVGIYYCQQGLEFPTFGGGTKLELK
With B1, the IC 50, Promega assay amounted to 5.59 µg/mL.
